Measured values published in FireProtDB (doi:10.1016/s0301-4622(99)00119-2).
Where “and” joins values, the source holds several entries; their conditions need not be identical. Identical values can stand only once.

Conditions: Bos taurus, pH 7, Absorbance, Sodium phosphate 100 mM

Chain of Cytochrome b wild type, P00157 (P00157 whole entry): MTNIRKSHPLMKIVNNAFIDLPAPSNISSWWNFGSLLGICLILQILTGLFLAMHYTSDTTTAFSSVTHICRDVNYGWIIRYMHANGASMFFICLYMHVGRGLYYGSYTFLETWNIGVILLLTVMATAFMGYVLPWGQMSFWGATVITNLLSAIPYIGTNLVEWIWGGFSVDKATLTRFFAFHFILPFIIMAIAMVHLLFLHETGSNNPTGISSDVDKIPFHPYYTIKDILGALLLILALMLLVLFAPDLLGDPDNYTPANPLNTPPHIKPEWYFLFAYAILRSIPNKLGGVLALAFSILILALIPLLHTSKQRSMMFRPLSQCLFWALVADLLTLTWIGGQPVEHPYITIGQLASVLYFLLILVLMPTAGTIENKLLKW

Cytochrome b wild type, P00157
denaturant midpoint (higher = more stable) (25 °C, Urea): 6.8 M | unfolding enthalpy (van 't Hoff) (Thermal): 90.1 kcal/mol and 85.6 kcal/mol
